Laboratory results as given in patent US20220048967A1 (published 2022).
Numbered stars: 1 amine (or outer) side, 2 acyl side, 3 side chain; on linkers, the order of the positions; unused ones are H or OH. Square brackets hold non-standard residues; d marks the D form. Side chains are listed from the residue outwards. Ends that are not written are not given here. * marks the point of attachment. C20 diacid = O=C(O)CCCCCCCCCCCCCCCCCCC(=O)*; γGlu = O=C(O)[C@H](CCC(=O)[*:2])N[*:1]; AEEA = NCCOCCOCC(=O)O; Aib = CC(C)(N)C(=O)O

T1: human GIP receptor (human, UniProt P48546 22-466)
T1 sequence (looked up): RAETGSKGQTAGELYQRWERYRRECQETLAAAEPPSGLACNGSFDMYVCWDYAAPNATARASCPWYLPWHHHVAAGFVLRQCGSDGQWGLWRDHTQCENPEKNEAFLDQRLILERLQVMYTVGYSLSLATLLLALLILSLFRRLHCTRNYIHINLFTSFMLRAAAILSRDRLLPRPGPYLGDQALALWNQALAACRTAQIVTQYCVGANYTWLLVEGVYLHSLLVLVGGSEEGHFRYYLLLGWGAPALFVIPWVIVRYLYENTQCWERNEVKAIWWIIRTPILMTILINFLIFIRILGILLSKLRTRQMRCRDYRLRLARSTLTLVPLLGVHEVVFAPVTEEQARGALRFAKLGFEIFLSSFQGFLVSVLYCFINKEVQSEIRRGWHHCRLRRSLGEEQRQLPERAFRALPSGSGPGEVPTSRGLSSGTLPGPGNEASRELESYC

B1: Example 77 (peptide)
peptide: Y[Aib]EGTFTSDYSILLKIAQ[Aib]AFIEYLIEGGPSSGAPPK([AEEA-AEEA-γGlu-C20 diacid])S-NH2
modifications: N-terminus assumed
SMILES: CC[C@H](C)[C@H](NC(=O)[C@H](CCCCN)NC(=O)[C@H](CC(C)C)NC(=O)[C@H](CC(C)C)NC(=O)[C@@H](NC(=O)[C@H](CO)NC(=O)[C@H](Cc1ccc(O)cc1)NC(=O)[C@H](CC(=O)O)NC(=O)[C@H](CO)NC(=O)[C@@H](NC(=O)[C@H](Cc1ccccc1)NC(=O)[C@@H](NC(=O)CNC(=O)[C@H](CCC(=O)O)NC(=O)C(C)(C)NC(=O)[C@@H](N)Cc1ccc(O)cc1)[C@@H](C)O)[C@@H](C)O)[C@@H](C)CC)C(=O)N[C@@H](C)C(=O)N[C@@H](CCC(N)=O)C(=O)NC(C)(C)C(=O)N[C@@H](C)C(=O)N[C@@H](Cc1ccccc1)C(=O)N[C@H](C(=O)N[C@@H](CCC(=O)O)C(=O)N[C@@H](Cc1ccc(O)cc1)C(=O)N[C@@H](CC(C)C)C(=O)N[C@H](C(=O)N[C@@H](CCC(=O)O)C(=O)NCC(=O)NCC(=O)N1CCC[C@H]1C(=O)N[C@@H](CO)C(=O)N[C@@H](CO)C(=O)NCC(=O)N[C@@H](C)C(=O)N1CCC[C@H]1C(=O)N1CCC[C@H]1C(=O)N[C@@H](CCCCNC(=O)COCCOCCNC(=O)COCCOCCNC(=O)CC[C@H](NC(=O)CCCCCCCCCCCCCCCCCCC(=O)O)C(=O)O)C(=O)N[C@@H](CO)C(N)=O)[C@@H](C)CC)[C@@H](C)CC
B2: Example 74 (peptide)
peptide: YXEGTFTSDYSIXLDKKAQXAXIEYLIEGGPSSGAPPPS
modifications: not fully specified; Aib2; αMeF13 as printed (likely αMeL13); K17((2-[2-(2-Amino-ethoxy)-ethoxy]-acetyl)2-(γ-Glu)-CO-(CH2)18-CO2H); Aib20; αMeF22; C-terminal NH2
B3: Example 76 (peptide)
peptide: YXEGTXTSDYSIXLDKKAQXAXIEYLIEGGPSSGAPPPS
modifications: not fully specified; Aib2; αMeF6; αMeF13 as printed (likely αMeL13); K17((2-[2-(2-Amino-ethoxy)-ethoxy]-acetyl)2-(γ-Glu)-CO-(CH2)18-CO2H); Aib20; αMeF22; C-terminal NH2
B4: Example 78 (peptide)
peptide: XXEGTFTSDYSILLDKKAQXAFIEYLIEGGPSSGAPPPS
modifications: D-Tyr1; Aib2; K17((2-[2-(2-Amino-ethoxy)-ethoxy]-acetyl)2-(γ-Glu)-CO-(CH2)18-CO2H); Aib20; C-terminal NH2
B5: Example 75 (peptide)
peptide: YXEGTFTSDYSIXLDKKAQXAFIEYXIEGGPSSGAPPPS
modifications: not fully specified; Aib2; αMeF13 as printed (likely αMeL13); K17((2-[2-(2-Amino-ethoxy)-ethoxy]-acetyl)2-(γ-Glu)-CO-(CH2)18-CO2H); Aib20; αMeF26 as printed (likely αMeL26); C-terminal NH2
B6: Example 73 (peptide)
peptide: Y[Aib]EGTFTSDYSILLDKIAQ[Aib]AFIEYLIK([AEEA-AEEA-γGlu-C20 diacid])GG-NH2
modifications: N-terminus assumed
SMILES: CC[C@H](C)[C@H](NC(=O)[C@H](CCCCN)NC(=O)[C@H](CC(=O)O)NC(=O)[C@H](CC(C)C)NC(=O)[C@H](CC(C)C)NC(=O)[C@@H](NC(=O)[C@H](CO)NC(=O)[C@H](Cc1ccc(O)cc1)NC(=O)[C@H](CC(=O)O)NC(=O)[C@H](CO)NC(=O)[C@@H](NC(=O)[C@H](Cc1ccccc1)NC(=O)[C@@H](NC(=O)CNC(=O)[C@H](CCC(=O)O)NC(=O)C(C)(C)NC(=O)[C@@H](N)Cc1ccc(O)cc1)[C@@H](C)O)[C@@H](C)O)[C@@H](C)CC)C(=O)N[C@@H](C)C(=O)N[C@@H](CCC(N)=O)C(=O)NC(C)(C)C(=O)N[C@@H](C)C(=O)N[C@@H](Cc1ccccc1)C(=O)N[C@H](C(=O)N[C@@H](CCC(=O)O)C(=O)N[C@@H](Cc1ccc(O)cc1)C(=O)N[C@@H](CC(C)C)C(=O)N[C@H](C(=O)N[C@@H](CCCCNC(=O)COCCOCCNC(=O)COCCOCCNC(=O)CC[C@H](NC(=O)CCCCCCCCCCCCCCCCCCC(=O)O)C(=O)O)C(=O)NCC(=O)NCC(N)=O)[C@@H](C)CC)[C@@H](C)CC

Tests used:
[1] = molecular target: T1, human GIP receptor; test: cell-based or functional assay
[2] = molecular target: human GLP-1 receptor (human, UniProt P43220 24-463); test: cell-based or functional assay

Binder	hGIPR cAMP EC50 ratio [1]	hGIPR cAMP Rel EC50 [1]	hGLP1R cAMP EC50 ratio [2]	hGLP1R cAMP Rel EC50 [2]
B1	0.00102	135 nM	< 3.25e-05	> 2000 nM
B2	1.7	0.0866 nM	0.115	0.467 nM
B3	1.24	0.124 nM	0.63	0.125 nM
B4	0.293	0.532 nM	0.143	0.544 nM
B5	0.69	0.214 nM	0.0359	1.49 nM
B6	0.174	0.979 nM	0.0225	2.55 nM
